Target: GST-DNMT1-N (UniProt P26358)
Experiment: pull-down; GST-tagged proteins on Glutathione Sepharose beads incubated with acid-extracted core histones from HEK293T cells transfected with FLAG-H3 or FLAG-H2B and UHRF1 (S phase); 25 mM Tris-HCl pH 8.0, 150 mM NaCl, 1% NP-40, 2 mM EDTA, 1 mM DTT, 4 °C, 3 h; WB with anti-FLAG

Substance	fold enrichment of the ubiquitinated histone in the pull-down [fold]
ubiquitinated FLAG-H3 (from UniProt P0CG48 1-76)	20
ubiquitinated FLAG-H2B (from UniProt P0CG48 1-76)	4.9
